Assay results: patent publication US20080221021A1, “Novel Corticotropin-Releasing Factor Receptor 1 (Crfr1) Agonist” (Max-Planck-Gesellschaft Zur Forderung Der, priority 2004, published 2008)
Entries after “also recorded” stand apart in the source; their conditions may differ. Where no end group is shown, it is not given here.

Assays:
C57BL/6J mice = test: Forced swim test, i.c.v. injection; format: in vivo, mouse
Procedure: Nine-week old male C57BL/6J (Centre D'Elevage Janvier, Sultzfeld, France) were individually housed in macrolon cages according to the recommendations of the Society for Laboratory Animal Science (Germany). All experiments were carried out in accordance with the European Council Directive (86/609/EEC) with the permission of the Animal Protection Law enforced by the District Government of Braunschweig, State of Lower Saxony, Germany, which is in full agreement with the APA ethical guidelines. All efforts were made to minimize animal suffering. The number of mice per group was 9-11.
All peptides were dissolved in aCSF except for the CRFR2-selective antagonist antisauvagine-30 (aSvg-30) (20) that was initially dissolved in 10 mM aqueous acetic acid and diluted with the same volume of two-fold concentrated aCSF. The final pH of the peptide solutions was 7.4. The exact peptide concentration of the injection solutions was determined by amino acid analysis with a Beckman HPLC analyzer system 6300. Total hydrolysis of the peptides was carried out in the presence of 1 nmol norvaline as internal standard with 6 M HCl for 24 h at 100° C.
For the forced swim test (FST), C57BL/6J mice cannulated in the lateral ventricles were subjected to swim sessions in individual glass cylinders (height 39 cm, diameter 21.7 cm) containing water, 15-cm deep, at 23-25° C. On day 1, all animals were placed in the cylinder for a preswim session of 15 min. On the test day 24 h later (day 2), the mice were subjected to a testswim session for 6 min. The water was changed between subjects. All testswim sessions were recorded by a video camera positioned directly above the cylinder. A component observer blind to treatment scored the videotapes. The behavioral measure scored was the duration of immobility, defined as time spent still or only using righting movements to keep the head over water. An increase in immobility time was interpreted as an increase of depression-like behavior. In all behavioral experiments, the cannula placement was confirmed for each mouse by histological examination of the brains after methylene blue injection (23). The behavioral data are expressed as mean±SEM, and were analysed using a two- and one-way ANOVA, with Bonferri/Dunn test applied, post hoc, for individual between-group comparisons at the p<0.05 level of significance.

[1] = Isoelectric point by isoelectric focusing; format: physicochemical; settings: IEF, pH range 3-10
Procedure: (§1) After dissolving the peptides in artificial cerebrospinal fluid (aCSF; 124 mM NaCl, 26.4 mM NaHCO3, 10 mM glucose, 3.3 mM KCl, 2.5 mM CaCl2 , 2.4 mM MgSO4 , 1.2 mM KH2PO4) at pH=7.4, the maximum solubility cmax was determined by amino acid analysis as described (21). The isoelectric point of the peptides was determined by isoelectric focusing (IEF) as described (21) with a Bio-Rad IEF cell system using Bio-Rad IEF strips in the pH range 3-10.

mCRFR2β = target: T1, mCRFR2β (Mus musculus, UniProt Q60748); test: Agonist-induced intracellular cAMP accumulation in HEK 293 cells producing mCRFR2β; format: cell-based; settings: in words
T1 construct: expressed in transfected cells
T1 sequence (Q60748 1-431 isoform Q60748-2): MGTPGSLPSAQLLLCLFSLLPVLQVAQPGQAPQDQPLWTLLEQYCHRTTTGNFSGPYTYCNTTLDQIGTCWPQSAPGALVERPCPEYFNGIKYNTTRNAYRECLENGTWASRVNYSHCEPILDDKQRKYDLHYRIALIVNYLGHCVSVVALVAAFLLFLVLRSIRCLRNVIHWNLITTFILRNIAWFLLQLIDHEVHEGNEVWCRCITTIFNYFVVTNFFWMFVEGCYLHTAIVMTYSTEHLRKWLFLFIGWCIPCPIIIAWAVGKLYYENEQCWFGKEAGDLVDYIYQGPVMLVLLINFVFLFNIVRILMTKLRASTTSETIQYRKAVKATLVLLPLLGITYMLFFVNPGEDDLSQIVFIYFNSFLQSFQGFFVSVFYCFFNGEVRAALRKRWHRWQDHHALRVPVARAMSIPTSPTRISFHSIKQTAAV
Procedure: (§2) The biological potency of cortagine and OCRF was evaluated by the determination of the EC50 values for agonist-induced intracellular accumulation of cAMP in HEK 293 cells producing either rCRFR1 or mCRFR2β.
(§3) The HEK 293 cells were plated into 24 well cell culture plates and stimulated as described (21) using increasing concentrations of the agonists under investigation. Intracellular cAMP was measured with the Biotrak™ cAMP [^125I] SPA system (Amersham Pharmacia Biotech) according to the manufacturer's product manual.

rCRFR1 = target: T2, rCRFR1 (Rattus norvegicus, UniProt P35353); test: Agonist-induced intracellular cAMP accumulation in HEK 293 cells producing rCRFR1; format: cell-based
T2 construct: expressed in transfected cells
T2 sequence (P35353 24-415): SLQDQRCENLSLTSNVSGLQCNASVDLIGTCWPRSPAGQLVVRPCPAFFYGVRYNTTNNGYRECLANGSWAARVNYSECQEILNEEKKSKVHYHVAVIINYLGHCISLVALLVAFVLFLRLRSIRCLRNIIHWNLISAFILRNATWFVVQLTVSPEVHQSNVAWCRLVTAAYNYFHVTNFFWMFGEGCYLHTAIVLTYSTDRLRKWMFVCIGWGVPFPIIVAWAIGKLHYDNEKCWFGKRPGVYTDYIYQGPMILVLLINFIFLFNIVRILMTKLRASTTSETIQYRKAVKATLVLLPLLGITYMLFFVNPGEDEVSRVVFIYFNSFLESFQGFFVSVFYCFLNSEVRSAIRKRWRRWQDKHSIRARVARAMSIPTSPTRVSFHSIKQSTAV
Procedure: as §2, §3

[2] = Maximum solubility in aCSF by amino acid analysis; format: physicochemical; settings: pH 7.4
Procedure: as §1

[Glu^21, Ala^40] [Svg^1-12]x[h/rCRF^14-30]x[Svg^30-40] (XGPPISIDLSLELLREVLEMERAEQLAQQAANNRLLLDTA; X not resolved here; ends and bridges not checked; also: Glx at position 1 not given here (Gln/Glu/pGlu)) [cortagine]
immobility time during the testswim session 24 h later (day 2) (C57BL/6J mice; 300 ng i.c.v. 30 min before preswim (day 1)): significantly reduced immobility time in comparison to oCRF-injected mice; also recorded: decrease of the immobility lime; also recorded: significant decrease | immobility time during the preswim session (C57BL/6J mice; 300 ng i.c.v. 30 min before preswim (day 1), vs aCSF): significantly decreased the immobility time | immobility time during the testswim session (C57BL/6J mice; 300 ng i.c.v. 30 min before testswim (day 2), vs aCSF): significantly decreased the immobility time | floating time in the FST (C57BL/6J mice; mice): reduced significantly | isoelectric point pI [1]: 4.8 | biological potency at mCRFR2β compared with rCRFR1 (mCRFR2β): about one to two orders of magnitude lower | biological potency at rCRFR1 (rCRFR1; cAMP accumulation, in words): high agonistic potency and high | CRFR1-selectivity over CRFR2β, EC50(mCRFR2)/EC50(rCRFR1) (rCRFR1; ratio of biological potencies (cAMP)): 89 | maximal solubility cmax [2]: up to 1000 μM
